The subject of data set [1] is HeLa Kyoto. Briefly: melting temperature (median over replicates), in situ; higher = more thermally stable.
Data set [2] has as its system HeLa Kyoto. The data set is described as follows: thermal stability score vs G1/S (z-score of summed log2 fold changes over temperatures); higher = more thermally stable than in G1/S.
The test system of data set [3] is HeLa Kyoto. Briefly: solubility in G1/S (NP-40 vs SDS abundance) (log2 ratio); higher = more soluble. As to conditions: cell cycle stage: G1/S.
Data set [4] relates to HeLa Kyoto. Briefly: solubility change mitosis vs G1/S (difference of NP-40 vs SDS log2 ratios) (log2 ratio difference); higher = more soluble in mitosis.
[5] abbreviates: cell cycle stage: early G1 (4.5 h after nocodazole release).
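Throughout, for melting temperature (median over replicates), in situ: HeLa Kyoto cells synchronized by double thymidine or nocodazole block, proteins quantified by TMT10plex mass spectrometry, three independent biological replicates.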
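Throughout, for solubility change mitosis vs G1/S (difference of NP-40 vs SDS log2 ratios): synchronized HeLa Kyoto cells (double thymidine block for G1/S, nocodazole release for mitosis), protein amounts in NP-40 versus SDS lysates quantified by mass spectrometry, three biological replicates.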
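Throughout, for solubility in G1/S (NP-40 vs SDS abundance): HeLa Kyoto cells arrested at G1/S by double thymidine block, proteins quantified by TMT10plex mass spectrometry in mild NP-40 versus SDS extracts, three biological replicates.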
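Throughout, for thermal stability score vs G1/S (z-score of summed log2 fold changes over temperatures): synchronized HeLa Kyoto cells, proteins quantified by TMT10plex mass spectrometry, three biological replicates, mitosis taken 0.5 h after nocodazole release, G1/S directly after double thymidine block.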

Take “MAETSEEVAVLVQRVVKDITNAFRRNPHIDEIGLIPCPEARYNRSPIVLVENKLGVESWCVKFLLPYVHNKLLLYRTRKQWLNRDELIDVTCTLLLLNPDFTTAWNVRKELILSGTLNPIKDLHLGKLALTKFPKSPETWIHRRWVLQQLIQETSLPSFVTKGNLGTIPTERAQRLIQEEMEVCGEAAGRYPSNYNAWSHRIWVLQHLAKLDVKILLDELSSTKHWASMHVSDHSGFHYRQFLLKSLISQTVIDSSVMEQNPLRSEPALVPPKDEEAAVSTEEPRINLPHLLEEEVEFSTDLIDSYPGHETLWCHRRHIFYLQHHLNAGSQLSQAMEVDGLNDSSKQGYSQETKRLKRTPVPDSLGLEMEHRFIDQVLSTCRNVEQARFASAYRKWLVTLSQ [PTAR1]”: the melting temperature in data set [1] (cell cycle stage: G1/S) turned out to be 53 °C; in data set [1] (cell cycle stage: mitosis), 52.1 °C. The thermal stability score was -1.63 in data set [2] (setting [5]) and -2.24 in data set [2] (cell cycle stage: mitosis). In addition, the “solubility in G1/S (log2)” value in data set [3] was 0.0716. In addition, the “solubility change mitosis (log2)” value in data set [4] is -0.125.
On to “MAFLKLRDQPSLVQAIFNGDPDEVRALIFKKEDVNFQDNEKRTPLHAAAYLGDAEIIELLILSGARVNAKDSKWLTPLHRAVASCSEEAVQVLLKHSADVNARDKNWQTPLHIAAANKAVKCAEALVPLLSNVNVSDRAGRTALHHAAFSGHGEMVKLLLSRGANINAFDKKDRRAIHWAAYMGHIEVVKLLVSHGAEVTCKDKKSYTPLHAAASSGMISVVKYLLDLGVDMNEPNAYGNTPLHVACYNGQDVVVNELIDCGAIVNQKNEKGFTPLHFAAASTHGALCLELLVGNGADVNMKSKDGKTPLHMTALHGRFSRSQTIIQSGAVIDCEDKNGNTPLHIAARYGHELLINTLITSGADTAKRGIHGMFPLHLAALSGFSDCCRKLLSSGFDIDTPDDFGRTCLHAAAAGGNLECLNLLLNTGADFNKKDKFGRSPLHYAAANCNYQCLFALVGSGASVNDLDERGCTPLHYAATSDTDGKCLEYLLRNDANPGIRDKQGYNAVHYSAAYGHRLCLQLIASETPLDVLMETSGTDMLSDSDNRATISPLHLAAYHGHHQALEVLVQSLLDLDVRNSSGRTPLDLAAFKGHVECVDVLINQGASILVKDYILKRTPIHAAATNGHSECLRLLIGNAEPQNAVDIQDGNGQTPLMLSVLNGHTDCVYSLLNKGANVDAKDKWGRTALHRGAVTGHEECVDALLQHGAKCLLRDSRGRTPIHLSAACGHIGVLGALLQSAASMDANPATADNHGYTALHWACYNGHETCVELLLEQEVFQKTEGNAFSPLHCAVINDNEGAAEMLIDTLGASIVNATDSKGRTPLHAAAFTDHVECLQLLLSHNAQVNSVDSTGKTPLMMAAENGQTNTVEMLVSSASAELTLQDNSKNTALHLACSKGHETSALLILEKITDRNLINATNAALQTPLHVAARNGLTMVVQELLGKGASVLAVDENGYTPALACAPNKDVADCLALILATMMPVSSSSPLSSLTFNAINRYTNTSKTVSFEALPIMRNEPSSYCSFNNIGGEQEYLYTDVDELNDSDSETY [ANKRD28]”, for which the melting temperature worked out at 51.2 °C in data set [1] (cell cycle stage: G1/S) and 50.8 °C in data set [1] (cell cycle stage: mitosis). Moreover, the thermal stability score is -0.536 in data set [2] (setting [5]) and -1.19 in data set [2] (cell cycle stage: mitosis). Also, the “solubility in G1/S (log2)” value in data set [3] is -0.288. Moreover, in data set [4], the “solubility change mitosis (log2)” value was -0.133.
“MAFPHRPDAPELPDFSMLKRLARDQLIYLLEQLPGKKDLFIEADLMSPLDRIANVSILKQHEVDKLYKVENKPALSSNEQLCFLVRPRIKNMRYIASLVNADKLAGRTRKYKVIFSPQKFYACEMVLEEEGIYGDVSCDEWAFSLLPLDVDLLSMELPEFFRDYFLEGDQRWINTVAQALHLLSTLYGPFPNCYGIGRCAKMAYELWRNLEEEEDGETKGRRPEIGHIFLLDRDVDFVTALCSQVVYEGLVDDTFRIKCGSVDFGPEVTSSDKSLKVLLNAEDKVFNEIRNEHFSNVFGFLSQKARNLQAQYDRRRGMDIKQMKNFVSQELKGLKQEHRLLSLHIGACESIMKKKTKQDFQELIKTEHALLEGFNIRESTSYIEEHIDRQVSPIESLRLMCLLSITENGLIPKDYRSLKTQYLQSYGPEHLLTFSNLRRAGLLTEQAPGDTLTAVESKVSKLVTDKAAGKITDAFSSLAKRSNFRAISKKLNLIPRVDGEYDLKVPRDMAYVFGGAYVPLSCRIIEQVLERRSWQGLDEVVRLLNCSDFAFTDMTKEDKASSESLRLILVVFLGGCTFSEISALRFLGREKGYRFIFLTTAVTNSARLMEAMSEVKA [VPS33B]”: the melting temperature in data set [1] (cell cycle stage: G1/S) came to 49.9 °C; in data set [1] (cell cycle stage: mitosis), 49.4 °C. Moreover, the thermal stability score in data set [2] (setting [5]) turned out to be 0.623; in data set [2] (cell cycle stage: mitosis), 0.549. Moreover, the “solubility in G1/S (log2)” value in data set [3] is -0.121. The “solubility change mitosis (log2)” value in data set [4] was -0.189.
Regarding “MAFQKAVKGTILVGGGALATVLGLSQFAHYRRKQMNLAYVKAADCISEPVNREPPSREAQLLTLQNTSEFDILVIGGGATGSGCALDAVTRGLKTALVERDDFSSGTSSRSTKLIHGGVRYLQKAIMKLDIEQYRMVKEALHERANLLEIAPHLSAPLPIMLPVYKWWQLPYYWVGIKLYDLVAGSNCLKSSYVLSKSRALEHFPMLQKDKLVGAIVYYDGQHNDARMNLAIALTAARYGAATANYMEVVSLLKKTDPQTGKVRVSGARCKDVLTGQEFDVRAKCVINATGPFTDSVRKMDDKDAAAICQPSAGVHIVMPGYYSPESMGLLDPATSDGRVIFFLPWQKMTIAGTTDTPTDVTHHPIPSEEDINFILNEVRNYLSCDVEVRRGDVLAAWSGIRPLVTDPKSADTQSISRNHVVDISESGLITIAGGKWTTYRSMAEDTINAAVKTHNLKAGPSRTVGLFLQGGKDWSPTLYIRLVQDYGLESEVAQHLAATYGDKAFEVAKMASVTGKRWPIVGVRLVSEFPYIEAEVKYGIKEYACTAVDMISRRTRLAFLNVQAAEEALPRIVELMGRELNWDDYKKQEQLETARKFLYYEMGYKSRSEQLTDRSEISLLPSDIDRYKKRFHKFDADQKGFITIVDVQRVLESINVQMDENTLHEILNEVDLNKNGQVELNEFLQLMSAIQKGRVSGSRLAILMKTAEENLDRRVPIPVDRSCGGL [GPD2]”, the melting temperature in data set [1] (cell cycle stage: G1/S) is 59.2 °C; in data set [1] (cell cycle stage: mitosis), 59 °C. Further, the thermal stability score in data set [2] (setting [5]) was -2.62; in data set [2] (cell cycle stage: mitosis), -2.93. Besides, in data set [3], the “solubility in G1/S (log2)” value was 0.104. Also, in data set [4], the “solubility change mitosis (log2)” value is -0.0945.

These data come from the supplement of paper PMC5998384.
